Experimental data: the supplement of paper PMC7877785
± gives the uncertainty stated by the source.

Assay: self-splicing fitness, log relative to wild type (ln ratio); higher = more splicing; Tetrahymena group I intron in knt gene, E. coli kanamycin selection, DiMSum; sequences stand for … in CUCUCU…GGAGGGAAAAGUUAUCAGGCAUGCACCUGGUAGCUAGUCUUUAAACCAAUAGAUUGCAUCGGUUUAAAAGGCAAGACCGUCAAAUUGCGGGAAAGGGGUCAACAGCCGUUCAGUACCAAGUCUCAGGGGAAACUUUGAGAUGGCCUUGCAAAGGGUAUGGUAAUAAGCUGACGGACAUGGUCCUAACCACGCAGCCAAGUCCUAAGUCAACAGAUCUUCUGUUGAUAUGGAUGCAGUUCACAGACUAAAUGUCGGUCGGGGAAGAUGUAUUCUUCUCAUAAGAUAUAGUCGGACCUCUCCUUAAUGGGAGCUAGCGGAUGAAGUGAUGCAACACUGGAGCCGCUGGGAACUAAUUUGUAUGCGAAAGUAUAUUGAUUAGUUUUGGAGUACUCGUGGUCG
Method in brief: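 Six replicate transformations of E. coli BL21(DE3) with a pET-22b(+) library were grown overnight at 37°C or 30°C. The library randomised all eight P1ex-region intron nucleotides, the intron lying in the knt kanamycin-resistance gene, and plates were LB agar with or without 25 μg/mL kanamycin plus 100 μg/mL carbenicillin, 50 μM IPTG and 0.2% rhamnose. Pooled colonies were amplicon-sequenced on an Illumina HiSeq 2500, and fitness is the DiMSum error-weighted combination of wild-type-normalised replicate fold changes, kanamycin versus none.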

Sequence | self-splicing fitness (ln) (30 °C) | self-splicing fitness (ln) (37 °C)
GUGUAGCAAUAUUACGGUUG | -2.88 ± 0.14 | -2.61 ± 0.16
UUUCAGCAAUAUUACGACCG | 0.263 ± 0.18 | -0.377 ± 0.29
UAGAAGCAAUAUUACGCAGG | -2.7 ± 0.15 | -2.19 ± 0.15
GCUGAGCAAUAUUACGGAAA | -2.86 ± 0.25 | -2.63 ± 0.32
UACUAGCAAUAUUACGAAUU | -4.02 ± 0.42 | -2.32 ± 0.25
UCCAAGCAAUAUUACGGGCC | -4.08 ± 0.32 | -1.72 ± 0.25
GUCCAGCAAUAUUACGCUAU | -0.823 ± 0.055 | -0.104 ± 0.071
UGAUAGCAAUAUUACGCAGU | -2.93 ± 0.44 | -2.51 ± 0.27
UCUGAGCAAUAUUACGCCAA | – | -1.51 ± 0.32
AUGUAGCAAUAUUACGGCGA | -0.117 ± 0.088 | -0.00452 ± 0.11
UCUGAGCAAUAUUACGUGCA | -2.65 ± 0.19 | -1.99 ± 0.22
AUUUAGCAAUAUUACGACCA | -0.901 ± 0.19 | -0.373 ± 0.23
CGCCAGCAAUAUUACGCGUA | -2.72 ± 0.18 | -2.31 ± 0.18
CUUCAGCAAUAUUACGUGGA | -3.13 ± 0.33 | -3.04 ± 0.28
GAAGAGCAAUAUUACGCUCU | -3.53 ± 0.23 | -2.74 ± 0.24
GUCGAGCAAUAUUACGUUCG | -3.55 ± 0.3 | -1.86 ± 0.25
UACCAGCAAUAUUACGCUUU | -1.86 ± 0.093 | -0.589 ± 0.1
ACUGAGCAAUAUUACGGCGC | -1.09 ± 0.088 | -0.47 ± 0.11
GGACAGCAAUAUUACGAACU | -0.198 ± 0.08 | 0.442 ± 0.083
AUCUAGCAAUAUUACGUCGC | -3.06 ± 0.47 | -1.86 ± 0.49
CUGUAGCAAUAUUACGUGCU | -2.94 ± 0.24 | -2.39 ± 0.33
GUCCAGCAAUAUUACGAAUA | 0.0949 ± 0.13 | -0.595 ± 0.15
CUGUAGCAAUAUUACGAAUC | -3.03 ± 0.35 | –
ACGAAGCAAUAUUACGAUAA | -1.62 ± 0.15 | -1.39 ± 0.14
AAGGAGCAAUAUUACGUUCC | -3.48 ± 0.32 | -2.98 ± 0.35
AGGUAGCAAUAUUACGAUUU | 0.169 ± 0.014 | 0.0198 ± 0.033

Sequence | self-splicing fitness (ln) (30 °C) | self-splicing fitness (ln) (37 °C)
CUCCAGCAAUAUUACGCGUA | – | -2.56 ± 0.25
UAAGAGCAAUAUUACGGCUC | -1.82 ± 0.26 | -1.32 ± 0.32
CGCUAGCAAUAUUACGCCAG | -3.09 ± 0.15 | -2.81 ± 0.29
UCAUAGCAAUAUUACGAAAC | -2.6 ± 0.25 | –
CGGGAGCAAUAUUACGACAG | -1.7 ± 0.22 | -0.944 ± 0.38
AUAGAGCAAUAUUACGGAUA | -2.83 ± 0.31 | -1.8 ± 0.39
GAUCAGCAAUAUUACGCUGU | -3.03 ± 0.21 | -2.38 ± 0.16
GUUCAGCAAUAUUACGUUAU | -0.292 ± 0.077 | -0.207 ± 0.099
CGGAAGCAAUAUUACGAGCA | -2.83 ± 0.24 | -1.82 ± 0.18
AGGGAGCAAUAUUACGUACA | -2.14 ± 0.18 | -2.46 ± 0.28
UAAAAGCAAUAUUACGGGAG | -2.66 ± 0.14 | -1.25 ± 0.11
AAUCAGCAAUAUUACGUAAC | -1.33 ± 0.11 | -0.141 ± 0.11
CGGGAGCAAUAUUACGCAAU | -3.15 ± 0.39 | –
AGCUAGCAAUAUUACGUCUC | -4.51 ± 0.39 | -2.86 ± 0.29
AGGAAGCAAUAUUACGAAUA | -2.74 ± 0.36 | -1.11 ± 0.27
GACUAGCAAUAUUACGCGUU | – | -3.83 ± 0.39
UACGAGCAAUAUUACGACAG | -2.49 ± 0.21 | -0.615 ± 0.2
AUUAAGCAAUAUUACGCGCA | -0.661 ± 0.13 | 0.376 ± 0.16
UCCAAGCAAUAUUACGUACG | -3.53 ± 0.19 | -1.76 ± 0.16
ACGGAGCAAUAUUACGGACC | – | -0.877 ± 0.34
CAAUAGCAAUAUUACGGCAU | -3.03 ± 0.17 | -1.32 ± 0.26
UUAUAGCAAUAUUACGAUGA | -0.778 ± 0.12 | 0.516 ± 0.14
CUACAGCAAUAUUACGAGGA | -3.4 ± 0.2 | -3.21 ± 0.27
ACCGAGCAAUAUUACGCGCA | -2.06 ± 0.1 | -0.82 ± 0.078
AACAAGCAAUAUUACGGUCC | -1.36 ± 0.063 | -0.282 ± 0.072
CCUUAGCAAUAUUACGUUCG | -3.37 ± 0.29 | -0.857 ± 0.18

Sequence | self-splicing fitness (ln) (30 °C) | self-splicing fitness (ln) (37 °C)
CGUUAGCAAUAUUACGCUCG | -1.41 ± 0.14 | -1.38 ± 0.18
UGCGAGCAAUAUUACGUCUC | -0.82 ± 0.28 | –
UGUUAGCAAUAUUACGGUGC | -3.76 ± 0.43 | -2.88 ± 0.32
UUUCAGCAAUAUUACGACAU | -1.41 ± 0.015 | -0.565 ± 0.033
CUGGAGCAAUAUUACGUUUG | -2.66 ± 0.17 | -1.21 ± 0.17
GUUGAGCAAUAUUACGUACC | -1.75 ± 0.36 | –
CCUCAGCAAUAUUACGCGAC | -3.47 ± 0.28 | -2.08 ± 0.22
GAUAAGCAAUAUUACGACUA | -0.184 ± 0.086 | -0.149 ± 0.1
GCAUAGCAAUAUUACGUCAG | -2.47 ± 0.16 | -1.8 ± 0.23
UCGCAGCAAUAUUACGUAUG | -1.83 ± 0.1 | -2.02 ± 0.15
ACACAGCAAUAUUACGAGAG | -3.65 ± 0.14 | -2.37 ± 0.12
CAACAGCAAUAUUACGGAUG | -2.53 ± 0.074 | -0.732 ± 0.068
GGAGAGCAAUAUUACGUGCG | -1.7 ± 0.14 | -2.06 ± 0.23
CAUAAGCAAUAUUACGGGCC | – | -1.25 ± 0.36
UCCAAGCAAUAUUACGUCCA | -1.56 ± 0.11 | -0.691 ± 0.11
UUGUAGCAAUAUUACGUAAU | -2.9 ± 0.22 | -2.37 ± 0.24
AAGAAGCAAUAUUACGUCAA | -1.78 ± 0.11 | -0.843 ± 0.088
ACUGAGCAAUAUUACGCCAA | -3.45 ± 0.29 | -2.74 ± 0.22
CCAUAGCAAUAUUACGCCGA | -1.4 ± 0.26 | -1.57 ± 0.42
UAACAGCAAUAUUACGCUUA | -0.77 ± 0.071 | 0.122 ± 0.1
AUUUAGCAAUAUUACGGAUU | -2.1 ± 0.21 | -0.519 ± 0.2
CCCCAGCAAUAUUACGGUGA | -1.76 ± 0.085 | -1.77 ± 0.11
AAACAGCAAUAUUACGCUUA | -1.92 ± 0.087 | -0.649 ± 0.094
AGCGAGCAAUAUUACGGAGC | – | -2.92 ± 0.4
CAGGAGCAAUAUUACGUGUC | -3.59 ± 0.21 | -3.03 ± 0.18
CGACAGCAAUAUUACGCUAG | -3.79 ± 0.25 | -2.04 ± 0.16
